Measurements published in patent publication US20240417479A1 (LASSEN THERAPEUTICS, published 2024).
Substitutions are numbered along the chain they refer to.

T1: cynomolgus monkey IL-18BP (cynomolgus monkey)
T1 chain: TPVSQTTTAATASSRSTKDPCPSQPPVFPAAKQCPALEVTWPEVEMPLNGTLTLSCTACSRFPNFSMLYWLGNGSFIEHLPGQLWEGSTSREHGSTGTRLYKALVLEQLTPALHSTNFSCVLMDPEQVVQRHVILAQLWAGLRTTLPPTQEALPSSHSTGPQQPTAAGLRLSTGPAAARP

T2: human IL-18BP (interleukin-18 binding protein), mature human isoform A (human, UniProt O95998 31-194)
T2 sequence: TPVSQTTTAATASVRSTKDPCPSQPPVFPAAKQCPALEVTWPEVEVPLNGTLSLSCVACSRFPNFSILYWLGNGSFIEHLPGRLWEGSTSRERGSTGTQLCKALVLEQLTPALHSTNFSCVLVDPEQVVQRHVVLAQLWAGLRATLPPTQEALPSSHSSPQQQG

B1: SA302a (antibody, human IgG1, V domains shown)
VH: QVQLQESGPGLVKPSQTLSLTCTVSGYSITSDYNAHWIRQPPGKGLEWIGYIHYSGSTNYNPSLKSRVTISRDTSKNQFSLKLSSVTAADTAVYYCARNYGSIYVNYFDYWGQGTLVTVSS
VL: EIVLTQSPATLSLSPGERATLSCSASSSVSYMYWYQQKPGQAPRPLIYRTSNLASGIPARFSGSGSGTDFTLTISSLEPEDFAVYYCQQYHSYPTFGGGTKVEIK
B2: SA340a (antibody, human IgG1, V domains shown)
VH: B1 VH with S31Q, S57Q, N59Y, Y100F
VL: B1 VL with T95K
B3: SA337a (antibody, human IgG1, V domains shown)
VH: B1 VH with S31Q, S57Q
VL: B1 VL with Q89L
B4: SA338a (antibody, human IgG1, V domains shown)
VH: B1 VH with S31Q, S57Q, N59Y, Y100F
VL: B1 VL with Q89L
B5: SA339a (antibody, human IgG1, V domains shown)
VH: B1 VH with S31Q, S57Q, N59Y, Y100F
VL: B1 VL with P94V
notes: Humanized; human IgG1, kappa

Tests used:
[1] = biological target: T1, cynomolgus monkey IL-18BP; experiment: cell-based or functional assay
[2] = biological target: T1, cynomolgus monkey IL-18BP; experiment: cell-based or functional assay
[3] = biological target: T2, human IL-18BP (interleukin-18 binding …); experiment: cell-based or functional assay
[4] = biological target: T2, human IL-18BP (interleukin-18 binding …); experiment: cell-based or functional assay; remark: listed apart in the source
[5] = biological target: T2, human IL-18BP (interleukin-18 binding …); experiment: BLI (Octet), mAb on AHC biosensor, IL-18BP in solution

Row | Binder | EC50; IFNγ release (ELISA) from cynomolgus monkey PBMC, assay format 2 (pre-complexed IL-18:IL-18BP, plus IL-12) [1] | EC50; IFNγ release (ELISA) from cynomolgus monkey PBMC with IL-12 + IL-18, assay format 1 (endogenous IL-18BP) [2] | EC50; CCL2 release (ELISA) from human PBMC with IL-12 + IL-18, PBMC assay 1 (endogenous IL-18BP) [3] | EC50; IFNγ secretion (ELISA) from purified human NK cells with precomplexed hIL-18:hIL-18BP plus IL-12 [4] | Kd [5]
1 | B1 | 0.63 nM | 3.4 nM | 25 nM | 1.3 nM | 
2 | B2 |  |  |  | 0.23 nM | 
3 | B3 | 0.39 nM | 0.58 nM | 4.7 nM | 0.59 nM | 
4 | B4 | 0.41 nM | 0.14 nM | 0.9 nM | 0.43 nM | 
5 | B5 |  |  |  |  | 0.087 nM
